Reference: paper PMC2645338

Columns and labels:
[1] = biological target: mitochondrial 28S small ribosomal subunit (bovine); assay: co-sedimentation
[2] = biological target: mitochondrial 28S small ribosomal subunit (bovine); assay: dot blot of epitope exposure
[3] = biological target: mitochondrial 28S small ribosomal subunit (bovine); assay: Microcon-100 centrifugation with dot blot immunodetection
[4] = biological target: C-terminal domain of IF3mt with the linker, His6-tagged (human); assay: SPR

| Substance | Kd [3] [nM] | other results |
| --- | --- | --- |
| mitochondrial initiation factor 3, mature full-length form, His-tagged (from UniProt Q9H2K0 32-278) (natural protein) | – | Kd [1]: 35 nM; quenching of the antigenic response on binding [2]: 80% |
| C-terminal domain of IF3mt with the linker, His6-tagged (domain or fragment) | 60 | – |
| C-terminal domain of IF3mt without the linker, His6-tagged (domain or fragment) | 95 | – |
| N-terminal domain of IF3mt with the linker, His6-tagged (domain or fragment) | 240 | Kd [1]: 277 nM |
| untagged IF3mt (mature full-length form, His-tag removed with TEV protease) (from UniProt Q9H2K0 32-278) (natural protein) | 40 | – |
| untagged C-domain of IF3mt with the linker (His-tag removed with TEV protease) (domain or fragment) | 70 | – |
| N-terminal domain of IF3mt without the linker, His6-tagged (domain or fragment) | 390 | – |
| untagged N-domain of IF3mt with the linker (His-tag removed with TEV protease) (domain or fragment) | 232 | – |
| mitochondrial 28S small ribosomal subunit (complex) | – | Kd [4]: 44 nM; koff [4]: 0.0092 s⁻¹; kon [4]: 210000 M⁻¹ s⁻¹ |
